Source: patent US20250297018A1, “IL-18BP ANTAGONIST ANTIBODIES AND THEIR USE IN MONOTHERAPY AND COMBINATION THERAPY IN THE TREATMENT OF CANCER” (Compugen Ltd., priority 2022, published 2025)

What was measured:
IL18 = molecular target: T1, IL18 (Homo sapiens, UniProt Q14116); settings: Kim et al., PNAS 2000; read-out: Dissociation constant (Kd) for IL18; cited from earlier work
T1 sequence (Q14116 37-193): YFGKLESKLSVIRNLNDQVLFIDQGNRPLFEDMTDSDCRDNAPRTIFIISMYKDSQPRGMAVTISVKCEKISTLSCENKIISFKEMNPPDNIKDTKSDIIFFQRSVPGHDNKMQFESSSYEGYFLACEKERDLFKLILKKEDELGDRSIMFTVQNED

[1] = MC38ova tumor-bearing mice treated with anti-mIL18BP or engineered mIL-18: weight, serum cytokines, spleen; assay type: in vivo, mouse; settings: spleens harvested 24 hours after the 4th treatment (IL-15: single dose), vs control
Description: Experiments were performed in C57Bl/6 (female, 6-8 wk, Envigo). Mice were anesthetized with 10% Ketamine and 10% Xylazine mixture injected intraperitoneal. Next, mice were inoculated with MC38ova cells (1.2×10^6) subcutaneously to the right flank in 50 μl/mice.
Spleens were harvested from mice 24 hours after the 4th treatment and weighed. For IL15 experiments, mice were treated with a single dose of 0.5 μg, 1.5 μg of IL15, or with a mix of 0.5 μg IL15 and 2.33 μg IL15R.

[2] = molecular target: T2, recombinant human IL18-BP (Homo sapiens, UniProt O95998); experiment: CMV recall assay, IFNγ secretion by CMV-reactive T-cells; assay type: cell-based; settings: rhIL-18 30 ng/ml + rhIL-18BP 2 μg/ml; antibodies 10 μg/ml
T2 construct: purchased R&D systems 119-BP; host or cells: added to MEL624/PD-L1 + CMV-reactive T-cell culture
T2 sequence (O95998 31-194): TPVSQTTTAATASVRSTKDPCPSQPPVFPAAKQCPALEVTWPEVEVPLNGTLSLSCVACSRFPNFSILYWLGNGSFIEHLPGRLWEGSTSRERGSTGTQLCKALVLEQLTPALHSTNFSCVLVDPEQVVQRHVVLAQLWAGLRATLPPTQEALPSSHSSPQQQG
Description: Human MEL-624 overexpressing PD-L1 cells were thawed and loaded with CMV pp65 peptide (0.03 μg/ml). The cells were seeded at 100K/well in a 96 well plate and incubated for 30 minutes in 37° C., 5% CO2 incubator with a combination rhIL-18 (30 ng/ml, R&D systems, 9124-IL/CF) and rhIL-18BP-Fc chimeric protein ([…], R&D systems 119-BP) to allow IL-18+IL-18BP complex formation. After 30 minutes, anti-human IL-18BP (ADI-71722, anti-human PVRIG, anti-human TIGIT (anti-TIGIT), anti-human PD1 (Pembrolizumab) or relevant isotype control (hIgG4) were added to the culture to examine their capability to restore IL-18 activity. All antibodies were added to a final concentration of 10 μg/ml. 30 minutes post incubation with antibodies, thawed CMV-reactive T-cells were added to the culture. Cells and all added solutions were prepared in full IMDM (IMDM media with 10% human serum, 1% Glutamax, 1% MEM eagle, 1% sodium pyruvate, and 1% Penicillin-Streptomycin Solution) to a final volume of 200 μl/well. Plates were incubated for 24 hours in 37° C., 5% CO2 incubator, after which the supernatant was collected for IFNγ secretion evaluation. All tests were done in triplicates and each repeated with three donors.
MEL624 cells that overexpress PD-L1 were loaded with CMV peptide pp65. […] CMV-specific T-cells were then added to the culture and IFNg secretion was measured after an overnight incubation.

[3] = molecular target: T2, recombinant human IL18-BP; experiment: MEL624:TIL assay, IFNγ secretion; assay type: cell-based; settings: rhIL-18 30 ng/ml + rhIL-18BP 1 μg/ml, 24 h, vs isotype control
Description: Human MEL624 cells were thawed and grown in DMEM with 10% FBS, 1% Glutamax, 1% Penicillin-Streptomycin Solution and 1% HEPES buffer. The cells were then seeded at 75 k cells/well in a 96 well plate in the assay medium (IMDM with 10% human serum, 1% Glutamax, 1% MEM eagle, 1% Sodium Pyruvate and 1% Penicillin-Streptomycin Solution) and incubated 1 hour in 37° C., 5% CO2 incubator before co-culture with human tumor infiltrating lymphocytes that were previously expanded using known melanoma antigens (TILs). Human TILs were thawed in full TIL media and 75 k cells/well were co-cultured with the MEL624 cells to create an effector:target ratio of 1:1. The co-cultured cells were then treated with rhIL-18 (30 ng/ml) and rhIL-18BP (1 μg/ml) for 30 min in 37° C., 5% CO2 incubator to allow IL-18:IL-18BP complex formation. After 30 minutes, anti-human IL-18BP mAb (ADI-71722, dose titration, 30 μg/ml-0.01 μg/ml, dilution factor of 1:3) or relevant isotype control (hIgG1 30 μg/ml) were added to the co-culture to examine its capability to restore IL-18 activity. Cells and all added solutions were prepared in full assay medium to a final volume of 200 μl/well. Plates were incubated for 24 hours in 37° C., 5% CO2 incubator, after which the supernatant was collected for cytokine secretion evaluation. […]
Where applicable, the EC50 value was calculated using GraphPad Prism software.

MEL624 cells = experiment: Killing of MEL624 melanoma cells by human TILs (IncuCyte); assay type: cell-based; settings: rhIL-18 50 ng/ml + rhIL-18BP 1 μg/ml, 10 μg/ml antibody, 72 hours
Description: MEL624 cells were co-cultured with human TILs that were previously enriched for MARTI or gp100 peptide-specific clones. rhIL-18 (R&D systems, 50 ng/ml) and rhIL-18BP (R&D systems, 1 μg/ml) were added to the co-culture for 30 minutes to allow the formation of IL-18:IL-18BP complex prior to treatment with 10 μg/ml ADI-71739 or isotype control. The co-culture was monitored for 72 hours using an IncuCyte live cell imaging instrument. […] In the presence of the isotype control antibody (black), IL-18BP abrogated the effects of IL-18, while the anti-IL-18BP antibody (turquoise) was able to completely restore these effects.

endogenous IL-18BP = molecular target: T3, endogenous IL-18BP (Homo sapiens, UniProt O95998); experiment: MEL624:TIL co-culture with endogenous IL-18BP levels, IFNg release; assay type: cell-based; settings: IL-18 3.7 ng/ml, 5 μg/ml antibody, 18 hours, vs isotype
T3 construct: endogenous in cells; host or cells: MEL624 cells co-cultured with human TILs
T3 sequence (O95998 31-194): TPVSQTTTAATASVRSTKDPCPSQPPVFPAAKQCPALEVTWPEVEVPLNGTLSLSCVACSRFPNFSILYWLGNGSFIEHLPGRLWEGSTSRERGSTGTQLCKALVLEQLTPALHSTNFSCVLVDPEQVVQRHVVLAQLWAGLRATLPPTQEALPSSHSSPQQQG
Description: A. Schematic representation of assay setup. MEL624 cells were co-cultured with human TILs that were previously enriched for MARTI or gp100 peptide-specific clones. IL-18 (3.7 ng/ml) was added to the co-culture along with 5 μg/ml ADI-71739 or isotype control. The co-culture was set for 18 hours following which IFNg levels were measured in supernatants. B. IFNg levels were increased in co-cultures treated with ADI-71739 (turquoise) as compared with isotype-treated samples (black). Representative examples from two TIL donors are shown.

human whole blood = experiment: Whole blood loop assay (ID.Flow); assay type: cell-based; settings: ex vivo whole blood loop, six healthy volunteers, 24 hr
Description: Flow, an ex vivo system that mimics the human blood circulation. Fresh whole blood was taken from six healthy volunteers and immediately transferred to a whole blood loop system. The test items were administered, and the blood was set to circulate at 37° C. to prevent clotting. Blood samples collected at the 24 hr time point were analyzed for hematology and flow cytometry parameters and then processed to plasma for cytokine analysis. The anti-CD52 antibody Alemtuzumab was included as a reference antibody with manageable cytokine release in the clinic.

Molecule: IL18-BPa: most abundant human IL18-BP isoform, isoform a
- Kd (IL18): ~0.4 nM

Molecule: IL-15: IL15 given as single dose of 0.5 μg or 1.5 μg, or mixed with IL15R [reference compound]
- Spleen size [1]: larger than controls

B1: ADI-71739: anti-IL18-BP antibody, VH SEQ ID NO: 154, VL SEQ ID NO: 159 (FIG. 2K), 66716 lineage (antibody, V domains shown)
VH: QLQLQESGPGLVKPSETLSLTCTVSGGSISSPDYPWGWIRQPPGKGLEWIGSIYYQGATYYNPSLKSRVTISVDTSKNQFSLKLSSVTAADTAVYYCARGPYRQLFDYWGQGTLVTVSS
VL: DIQMTQSPSSVSASVGDRVTITCRASQGISSWLAWYQQKPGKAPKLLIYAASSLQSGVPSRFSGSGSGTDFTLTISSLQPEDFATYYCQQGSVFPYTFGGGTKVEIK
- IFNγ secretion by CMV-reactive T-cells [2]: increase IFNγ secretion by the T cells
- IFNγ secretion from TILs [3]: increase IFNγ secretion from TILs compared to isotype control
- Killing of melanoma cells by tumor infiltrating lymphocytes (MEL624 cells): increased killing of melanoma cells by tumor infiltrating lymphocytes
- IFNg release by tumor infiltrating lymphocytes (endogenous IL-18BP): increased IFNg release by tumor infiltrating lymphocytes

B2: ADI-71722: anti-IL18-BP antibody, VH SEQ ID NO: 84, VL SEQ ID NO: 89 (FIG. 2D), 66670 lineage (antibody, V domains shown)
VH: QVQLVQSGAEVKKPGSSVKVSCKASGGTFSEYPISWVRQAPGQGLEWMGGIIPGAGTAIYAQKFQGRVTITADESTSTAYMELSSLRSEDTAVYYCARGRHFHETWGQGTLVTVSS
VL: DIQMTQSPSSVSASVGDRVTITCRASQGISSWLAWYQQKPGKAPKLLIYAASSLQSGVPSRFSGSGSGTDFTLTISSLQPEDFATYYCQQVYRFPWTFGGGTKVEIK
- IFNγ secretion by CMV-reactive T-cells [2]: fully restore IFNγ secretion

B3: ADI-71709: anti-IL18-BP antibody, VH SEQ ID NO: 54, VL SEQ ID NO: 59 (FIG. 2A), 66650 lineage (antibody, V domains shown)
VH: QVQLVQSGAEVKKPGASVKVSCEASGYTFDIYAVHWVRQAPGQRLEWMGWIHAGTGATKYSQKFQGRVTITRDTSASTAYMELSSLRSEDTAVYYCARGLGEVGPTGTSWFDPWGQGTLVTVSS
VL: DIQMTQSPSTLSASVGDRVTITCRASQSISSWLAWYQQKPGKAPKLLIYEASSLESGVPLRFSGSGSGTEFTLTISSLQPDDFATYYCQQYRQSPFTFGGGTKVEIK
- Signs of systemic immune activation (human whole blood): did not show signs of systemic immune activation
